The values below come from patent publication US20210188989A1 (SYSTIMMUNE, published 2021).

This assay concerns the target T1, recombinant human 4-1BB extracellular domain protein (human, UniProt Q07011 24-186).
T1 construct: extracellular domain; Analyte in the Octet assay; also called CD137; TNFRSF9
As to the kind of experiment: Octet, binding off-rate kdis; the sheet names no species of 41BB, paragraph 86: 'binding to human and recombinant 4-1BB by octet assay'. (BLI is a label-free optical method that tracks binding on a fibre tip over time.)

Broadly, the koff is the rate constant with which the complex falls apart.

Residue numbers refer to the chain shown, from its start.

B1: 411H11 VHv1VLv1 (antibody, human IgG1, kappa, V domains shown)
VH: EVQLVESGGGLVQPGGSLRLSCAASGFTISSHHMIWVRQAPGKGLQYIGFINDGDYTYYTNSAKGRFTISRDNSKNTLYLQMNSLRAEDTAVYYCARGVDGTSYPGLWGQGTLVTVSS
VL: DVVMTQSPSSVSASVGDRVTITCQASQSIGADLAWYQQKPGKAPKLLIYRASTLASGVPSRFSGSGSGTDFTLTISSLQPEDFATYYCQAIYYGTDDVIYHTFGGGTKVEIKR
notes: one of the humanized antibodies; also called 411H11 humanized
Turning to B1, the off-rate constant (koff) was found to be 0.00179 s⁻¹.

B2: 416G1 VHv1VLv1 (antibody, human IgG1, kappa, V domains shown)
VH: B1 VH with S30N, H32Y, Q46E, D55G, Y56F, T60A, N61S, G106D
VL: B1 VL with A31S, A90S, T95S
notes: one of the humanized antibodies; also called 416G1 humanized
With B2, the koff amounted to 0.00166 s⁻¹.

B3: 413F3 VHv1VLv1 (antibody, human IgG1, kappa, V domains shown)
VH: EVQLVESGGGLVQPGGSLRLSCAASGIDFSSNYMCWVRQAPGKGLEWIACIYGDSSDNSYSASSAKGRFTISRDNSKNTLYLQMNSLRAEDTAVYYCARSGYSYLGYFNLWGQGTLVTVSS
VL: DIQMTQSPSSLSASVGDRVTITCQASQSIYSNLAWYQQKPGKVPKLLIYSTSTLASGVPSRFSGSGSGTDFTLTISSLQPEDVATYYCQNYYGSSTDSYGNPFGGGTKVEIKR
notes: one of the humanized antibodies; also called 413F3 humanized
Consider B3, for which the koff is 0.00224 s⁻¹.

B4: 466F6 VHv2VLv5 (antibody, human IgG1, kappa, V domains shown)
VH: RSLVESGGGLVQPGGSLRLSCTASGFTISSYHMQWVRQAPGKGLEYIGTISSGGNVYYASSARGRFTISRPSSKNTVDLQMNSLRAEDTAVYYCARDSGYSDPMWGQGTLVTVSS
VL: DVVMTQSPSSVSASVGDRVTITCQASQNIRTYLSWYQQKPGKAPKLLIYAAANLASGVPSRFSGSGSGTDFTLTISDLEPGDAATYYCQSTYLGTDYVGGAFGGGTKVEIKR
notes: one of the humanized antibodies; also called 466F6 humanized
Take B4: the koff stood at 0.00254 s⁻¹.

B5: 418H5 VHv2VLv1 (antibody, human IgG1, kappa, V domains shown)
VH: EVQLVESGGGLVQPGGSLRLSCTASGIDLSAYHMSWVRQAPGKGLEYIGMIGSSGTIHYANSAKGRFTISKDNTKNTVDLQMNSLRAEDTAVYYCARDSYNSDYAFNLWGQGTLVTVSS
VL: DIQMTQSPSSVSASVGDRVTITCQSSPSVYKNNQLAWYQQKPGKAPKLLIYLASTLASGVPSRFSGSGSGTDFTLTISSLQPEDFATYYCAGGYSSSSDTAFGGGTKVEIKR
notes: one of the humanized antibodies; also called 418H5 humanized
As to B5, the off-rate constant (koff) worked out at 0.00245 s⁻¹.

B6: 416F8 VHv3VLv1 (antibody, human IgG1, kappa, V domains shown)
VH: QSLVESGGGLVQPGGSLRLSCAASGFSLSNYYMNWVRQAPGKGLEYIGIISSSGSAYYASSAKGRFTISRDNSKNTLYLQMNSLRAEDTAVYYCARGDYGMDLWGQGTLVTVSS
VL: DIQMTQSPSSLSASVGDRVTITCQSSQTVYNNNLLSWYQQKPGKVPKLLIYYASTLAFGVPSRFSGSGSGTDFTLTISSLQPEDVATYYCQGGYSGWIYVFGGGTKVEIKR
notes: one of the humanized antibodies; also called 416F8 humanized
B6: the koff was 0.00645 s⁻¹.

B7: 418E10 VHv1VLv1 (antibody, human IgG1, kappa, V domains shown)
VH: EVQLVESGGGLVQPGGSLRLSCAASGFSLSTYYMSWVRQAPGKGLEWIGSIYDSGAAYYATSAKGRFTISRDNSKNTLYLQMNSLRAEDTAVYYCARDPINNAIWGQGTLVTVSS
VL: DIQMTQSPSTLSASVGDRVTITCQASQSIGSNLNWYQQKPGKAPKLLIYYVSTLASGVPSRFSGSGSGTEFTLTISSLQPDDFATYYCLGVWNYWGDDGTAFGGGTKVEIKR
notes: one of the humanized antibodies; also called 418E10 humanized
Take B7: the koff was 0.000958 s⁻¹.

B8: 418E4 VHv1VLv1 (antibody, human IgG1, kappa, V domains shown)
VH: B7 VH with T31S, D53A, A56S, T61S, A103D
VL: B7 VL with G30A, S31T, V51T, T53S
notes: one of the humanized antibodies; also called 418E4 humanized
Take B8: the koff was determined as 0.00277 s⁻¹.

B9: 419D9 VHv3VLv3 (antibody, human IgG1, kappa, V domains shown)
VH: EVQLLESGGGLVQPGGSLRLSCTASGFSFSSRHYMCWVRQAPGKGLEWIACIYTGSSGTPHYASSAKGRFTISQDNSKNTVTLQMNSLRAEDTAVYYCAREGNLWGQGTLVTVSS
VL: DIQMTQSPSTLSASVGDRVTITCQSSQSVYSNWLSWYQQKPGKAPKRLIYSASTLASGVPSRFSGSGSGTEFTLTISSLQPDDFATYYCAGGYNTVTDTFAFGGGTKVEIKR
notes: one of the humanized antibodies; also called 419D9 humanized
Take B9: the koff turned out to be 0.00284 s⁻¹.

B10: 460C3 VHv1VLv1 (antibody, human IgG1, kappa, V domains shown)
VH: EVQLLESGGGLVQPGGSLRLSCAASGIDFSRRYYMCWVRQAPGKGLEWIACIYTGSRDTPHYASSAKGRFTISRDNSKNTLYLQMNSLRAEDTAVYYCAREGSLWGQGTLVTVSS
VL: B9 VL with L34F, R47L, T97I
notes: one of the humanized antibodies; also called 460C3 humanized
On to B10, for which the off-rate constant (koff) was 0.000728 s⁻¹.

B11: 420H6 VHv1VLv1 (antibody, human IgG1, kappa, V domains shown)
VH: B10 VH with R31S, R32S, S56G, R57S, D58G
VL: B9 VL with S25A, R47L, T97I
notes: one of the humanized antibodies; also called 420H6 humanized
With B11, the koff stood at 0.00128 s⁻¹.

B12: 459F1 VHv1VLv1 (antibody, human IgG1, kappa, V domains shown)
VH: B10 VH with I52M, S103N
VL: B9 VL with L34F, R47L
notes: one of the humanized antibodies; also called 459F1 humanized
On to B12, for which the koff came out at 0.00131 s⁻¹.

B13: 464C11 VHv1VLv1 (antibody, human IgG1, kappa, V domains shown)
VH: EVQLVESGGGLVQPGPSLRLSCTASGFSLSHYWMTWVRQAPGKGLEYIGFINVGGDTSYASSVKGRFTISRDDSKSIAYLQMNSLKTEDTAVYYCGRGGLTFGWDLWGQGTLVTVSS
VL: DIQMTQSPSTLSASVGDRVTITCQSSQSVYSNSFLSWYQQKPGKAPKLLIYSASDLASGVPSRFSGSGSGTEFTLTISSLQPDDFATYYCAGVYSDNTYVFGGGTKVEIKR
notes: one of the humanized antibodies; also called 464C11 humanized
Regarding B13, the koff turned out to be 0.000784 s⁻¹.

B14: 420H5 VHv3VLv3 (antibody, human IgG1, kappa, V domains shown)
VH: QSLVESGGGLVQPGGSLRLSCAASGFSFSSNYWICWVRQAPGKGLEWIACIYVGSSGDTYYASSAKGRFTISRDNSKNTLYLQMNSLRAEDTAVYYCARDSSSYYMFNLWGQGTLVTVSS
VL: ALVMTQSPSTLSASVGDRVTINCQASEDIDTYLAWYQQKPGKAPKLLIFYASDLASGVPSRFSGSGSGTEFTLTISSLQPDDFATYYCQGGYYTSSADTRGAFGGGTKVEIKR
notes: one of the humanized antibodies; also called 420H5 humanized
Consider B14, for which the koff came to 0.00178 s⁻¹.

B15: 470C6 VHv3VLv3 (antibody, human IgG1, kappa, V domains shown)
VH: B14 VH with S29T, N31S, W33Y, I34M, V53T, D58S, S63N
VL: B14 VL with T31N, A97T
notes: one of the humanized antibodies; also called 470C6 humanized
B15: the koff amounted to 0.00183 s⁻¹.

B16: 472E4 VHv1VLv1 (antibody, human IgG1, kappa, V domains shown)
VH: EVQLVESGGGLVQPGGSLRLSCAASGFSLNNNAISWVRQAPGKGLEWVAIIQNTGTTDYARSAKGRFTISRDNSKNTLYLQMNSLRAEDTAVYYCARGYGFESELVIWGQGTLVTVSS
VL: DIQMTQSPSSLSASVGDRVTITCQSSQSVYNNNALAWYQQKPGKVPKLLIYLASTLASGVPSRFSGSGSGTDFTLTISSLQPEDVATYYCLGVYNDDVDNGFGGGTKVEIKR
notes: one of the humanized antibodies; also called 472E4 humanized
Turning to B16, the koff stood at 0.00265 s⁻¹.
